What was measured:
AncSZ = experiment: phosphorylation enrichment, bacterial display (enrichment ratio); higher = better substrate or ligand; peptides without Tyr show the background
EPHB1 = EPHB1 (UniProt P54762); experiment: as above
EPHB2 = EPHB2 (UniProt P29323); experiment: as above
FGFR1 = FGFR1 (UniProt P11362); experiment: as above
FGFR3 = FGFR3 (UniProt P22607); experiment: as above
Fer (mouse) = experiment: as above
Fes = Fes (UniProt P07332); experiment: as above
Fyn = Fyn (UniProt P06241); experiment: as above
Hck = Hck (UniProt P08631); experiment: as above
Jak2 = Jak2 (UniProt O60674); experiment: as above
MERTK = MERTK (UniProt Q12866); experiment: as above
MERTK, sequence (Q12866 whole entry, looked up): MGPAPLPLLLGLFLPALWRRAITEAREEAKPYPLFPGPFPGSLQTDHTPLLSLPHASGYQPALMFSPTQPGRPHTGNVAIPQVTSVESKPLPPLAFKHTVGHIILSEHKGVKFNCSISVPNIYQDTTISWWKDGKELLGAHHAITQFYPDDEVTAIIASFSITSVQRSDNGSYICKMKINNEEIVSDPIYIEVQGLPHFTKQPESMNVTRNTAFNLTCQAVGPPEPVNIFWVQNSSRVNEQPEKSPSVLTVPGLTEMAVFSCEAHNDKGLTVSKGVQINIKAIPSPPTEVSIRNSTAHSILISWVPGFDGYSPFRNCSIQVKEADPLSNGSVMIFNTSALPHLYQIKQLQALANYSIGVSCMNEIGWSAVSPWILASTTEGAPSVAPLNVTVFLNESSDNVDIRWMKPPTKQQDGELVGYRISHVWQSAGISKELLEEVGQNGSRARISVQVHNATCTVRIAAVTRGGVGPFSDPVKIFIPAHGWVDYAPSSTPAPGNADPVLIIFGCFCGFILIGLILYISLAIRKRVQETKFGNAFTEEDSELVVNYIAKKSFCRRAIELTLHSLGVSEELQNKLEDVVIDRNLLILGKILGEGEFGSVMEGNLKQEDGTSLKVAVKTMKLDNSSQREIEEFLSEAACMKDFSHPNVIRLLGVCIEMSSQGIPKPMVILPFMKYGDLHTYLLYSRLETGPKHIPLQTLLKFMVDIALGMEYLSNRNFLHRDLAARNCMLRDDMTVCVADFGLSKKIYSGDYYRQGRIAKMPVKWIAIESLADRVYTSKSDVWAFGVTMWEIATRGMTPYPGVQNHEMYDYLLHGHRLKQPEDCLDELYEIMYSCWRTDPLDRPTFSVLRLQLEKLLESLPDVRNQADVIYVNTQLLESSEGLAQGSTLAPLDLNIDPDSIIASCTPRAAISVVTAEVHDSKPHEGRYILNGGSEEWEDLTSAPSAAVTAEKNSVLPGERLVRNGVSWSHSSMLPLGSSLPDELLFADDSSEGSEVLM

c-Abl (mouse) = experiment: as above
c-Src = experiment: as above
Grb2 SH2 = Grb2 SH2 (UniProt P62993); experiment: SH2 binding enrichment of the phosphorylated peptide, bacterial display (enrichment ratio); higher = better substrate or ligand; peptides without Tyr show the background
SHP2-C SH2 = experiment: as above
c-Src SH2 = experiment: as above
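Throughout, for SH2 binding enrichment of the phosphorylated peptide, bacterial display: peptide library displayed on the E. coli surface as eCPX fusions, selected cells deep-sequenced, score is each peptide's frequency after selection divided by its frequency in the input.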
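Throughout, for phosphorylation enrichment, bacterial display: 11-residue human phosphosite peptides and single-mutation variants displayed on the E. coli surface, counted by deep sequencing, each peptide's frequency after selection divided by its frequency in the unselected input library; frequency after pTyr selection over input frequency; kinase dosed for 20-30% of maximal phosphorylation in three min.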

FGFR1, sequence (P11362 whole entry, looked up): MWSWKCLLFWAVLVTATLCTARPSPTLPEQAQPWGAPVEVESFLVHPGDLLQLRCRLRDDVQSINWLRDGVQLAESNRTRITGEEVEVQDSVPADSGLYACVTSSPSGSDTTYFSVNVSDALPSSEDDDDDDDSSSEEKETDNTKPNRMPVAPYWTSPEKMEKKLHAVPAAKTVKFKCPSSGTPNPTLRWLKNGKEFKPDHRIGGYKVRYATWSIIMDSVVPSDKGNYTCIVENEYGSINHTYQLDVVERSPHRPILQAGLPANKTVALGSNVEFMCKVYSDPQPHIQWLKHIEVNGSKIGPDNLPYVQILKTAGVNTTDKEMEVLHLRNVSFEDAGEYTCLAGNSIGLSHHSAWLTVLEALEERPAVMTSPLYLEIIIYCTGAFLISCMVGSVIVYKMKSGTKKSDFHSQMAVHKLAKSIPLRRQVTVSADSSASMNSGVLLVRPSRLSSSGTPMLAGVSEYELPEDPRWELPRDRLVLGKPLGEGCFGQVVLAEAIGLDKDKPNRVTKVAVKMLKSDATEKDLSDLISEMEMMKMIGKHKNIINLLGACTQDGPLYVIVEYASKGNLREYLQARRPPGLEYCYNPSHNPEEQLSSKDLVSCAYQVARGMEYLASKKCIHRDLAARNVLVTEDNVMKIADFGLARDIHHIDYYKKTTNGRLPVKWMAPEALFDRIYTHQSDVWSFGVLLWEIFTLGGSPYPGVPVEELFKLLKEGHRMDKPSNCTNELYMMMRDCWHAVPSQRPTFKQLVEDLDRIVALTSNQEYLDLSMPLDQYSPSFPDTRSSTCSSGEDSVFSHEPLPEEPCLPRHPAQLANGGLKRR
EPHB1, sequence (P54762 whole entry, looked up): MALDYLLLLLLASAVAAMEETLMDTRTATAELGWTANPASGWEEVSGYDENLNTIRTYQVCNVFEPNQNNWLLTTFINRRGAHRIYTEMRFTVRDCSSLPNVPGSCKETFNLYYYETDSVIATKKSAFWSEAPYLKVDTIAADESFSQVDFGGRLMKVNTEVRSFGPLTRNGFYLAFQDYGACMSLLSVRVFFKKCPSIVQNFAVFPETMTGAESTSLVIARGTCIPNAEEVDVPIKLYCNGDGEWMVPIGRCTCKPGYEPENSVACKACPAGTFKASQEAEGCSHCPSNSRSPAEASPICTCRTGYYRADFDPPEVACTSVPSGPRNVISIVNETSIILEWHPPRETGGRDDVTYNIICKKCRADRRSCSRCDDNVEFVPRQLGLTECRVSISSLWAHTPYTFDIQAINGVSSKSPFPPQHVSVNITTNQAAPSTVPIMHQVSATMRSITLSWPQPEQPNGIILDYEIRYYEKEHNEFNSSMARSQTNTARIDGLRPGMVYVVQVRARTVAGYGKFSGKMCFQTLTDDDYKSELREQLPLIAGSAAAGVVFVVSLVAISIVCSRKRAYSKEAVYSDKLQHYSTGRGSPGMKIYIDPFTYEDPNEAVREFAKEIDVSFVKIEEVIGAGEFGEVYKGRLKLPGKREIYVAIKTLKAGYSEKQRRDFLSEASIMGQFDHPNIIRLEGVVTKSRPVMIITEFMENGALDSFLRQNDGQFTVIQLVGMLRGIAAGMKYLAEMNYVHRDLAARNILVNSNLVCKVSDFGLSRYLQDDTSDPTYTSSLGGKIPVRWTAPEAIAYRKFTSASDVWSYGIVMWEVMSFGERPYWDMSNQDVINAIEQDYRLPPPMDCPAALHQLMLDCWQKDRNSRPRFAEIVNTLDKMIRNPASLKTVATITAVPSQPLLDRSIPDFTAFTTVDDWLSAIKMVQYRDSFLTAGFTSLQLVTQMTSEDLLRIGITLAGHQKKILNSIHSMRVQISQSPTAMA
EPHB2, sequence (P29323 whole entry, looked up): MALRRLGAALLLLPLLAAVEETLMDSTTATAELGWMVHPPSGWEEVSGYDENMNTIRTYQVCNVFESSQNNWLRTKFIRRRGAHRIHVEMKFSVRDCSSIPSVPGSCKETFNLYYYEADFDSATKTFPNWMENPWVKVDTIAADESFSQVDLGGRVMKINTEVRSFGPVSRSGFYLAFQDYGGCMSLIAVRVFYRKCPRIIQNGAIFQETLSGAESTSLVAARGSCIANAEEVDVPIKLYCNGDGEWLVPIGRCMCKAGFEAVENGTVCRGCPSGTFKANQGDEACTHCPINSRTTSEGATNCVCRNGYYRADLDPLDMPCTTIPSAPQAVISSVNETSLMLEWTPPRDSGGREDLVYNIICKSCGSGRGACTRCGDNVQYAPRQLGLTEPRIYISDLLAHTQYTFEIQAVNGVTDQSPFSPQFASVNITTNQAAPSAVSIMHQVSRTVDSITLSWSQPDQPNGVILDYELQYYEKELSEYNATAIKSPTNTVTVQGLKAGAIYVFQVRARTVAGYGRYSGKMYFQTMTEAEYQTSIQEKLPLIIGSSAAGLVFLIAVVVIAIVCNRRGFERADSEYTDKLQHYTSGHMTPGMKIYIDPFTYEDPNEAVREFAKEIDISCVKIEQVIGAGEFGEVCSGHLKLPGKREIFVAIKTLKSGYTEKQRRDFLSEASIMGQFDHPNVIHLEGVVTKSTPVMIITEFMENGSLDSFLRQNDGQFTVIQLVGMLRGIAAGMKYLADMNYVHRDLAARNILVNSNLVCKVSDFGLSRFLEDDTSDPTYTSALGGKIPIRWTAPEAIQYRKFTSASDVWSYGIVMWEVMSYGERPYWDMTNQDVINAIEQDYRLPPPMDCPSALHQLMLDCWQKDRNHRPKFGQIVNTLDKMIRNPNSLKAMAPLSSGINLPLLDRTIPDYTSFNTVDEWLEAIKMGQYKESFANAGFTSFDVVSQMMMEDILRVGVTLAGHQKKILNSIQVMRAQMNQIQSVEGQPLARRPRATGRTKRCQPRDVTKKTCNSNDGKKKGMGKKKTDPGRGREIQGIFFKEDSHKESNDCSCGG
FGFR3, sequence (P22607 whole entry, looked up): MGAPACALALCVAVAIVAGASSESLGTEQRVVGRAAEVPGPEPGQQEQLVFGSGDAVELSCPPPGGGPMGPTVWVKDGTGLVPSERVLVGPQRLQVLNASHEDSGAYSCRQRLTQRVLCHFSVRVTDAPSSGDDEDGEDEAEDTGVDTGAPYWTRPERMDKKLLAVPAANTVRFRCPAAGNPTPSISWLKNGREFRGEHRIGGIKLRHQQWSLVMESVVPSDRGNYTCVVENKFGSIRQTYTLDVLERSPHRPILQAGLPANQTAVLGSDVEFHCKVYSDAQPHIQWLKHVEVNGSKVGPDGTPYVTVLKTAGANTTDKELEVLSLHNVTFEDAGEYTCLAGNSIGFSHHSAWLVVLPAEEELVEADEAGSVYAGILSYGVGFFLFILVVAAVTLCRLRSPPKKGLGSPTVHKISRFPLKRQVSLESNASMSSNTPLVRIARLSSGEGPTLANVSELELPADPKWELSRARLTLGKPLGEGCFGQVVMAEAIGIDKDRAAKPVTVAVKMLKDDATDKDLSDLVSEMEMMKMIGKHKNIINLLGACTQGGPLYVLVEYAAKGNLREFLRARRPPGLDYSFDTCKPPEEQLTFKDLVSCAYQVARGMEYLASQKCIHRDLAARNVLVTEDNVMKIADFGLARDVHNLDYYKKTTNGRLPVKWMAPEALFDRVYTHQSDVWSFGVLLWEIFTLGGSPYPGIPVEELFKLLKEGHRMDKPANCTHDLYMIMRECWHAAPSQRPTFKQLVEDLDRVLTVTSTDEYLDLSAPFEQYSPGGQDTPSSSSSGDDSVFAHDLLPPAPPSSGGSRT

| Sequence | SH2 binding enrichment (Grb2 SH2) | SH2 binding enrichment (SHP2-C SH2) | SH2 binding enrichment (c-Src SH2) | phosphorylation enrichment (AncSZ) | phosphorylation enrichment (EPHB1) | phosphorylation enrichment (EPHB2) | phosphorylation enrichment (FGFR1) | phosphorylation enrichment (FGFR3) | phosphorylation enrichment (Fer (mouse)) | phosphorylation enrichment (Fes) | phosphorylation enrichment (Fyn) | phosphorylation enrichment (Hck) | phosphorylation enrichment (Jak2) | phosphorylation enrichment (MERTK) | phosphorylation enrichment (c-Abl (mouse)) | phosphorylation enrichment (c-Src) |
| --- | --- | --- | --- | --- | --- | --- | --- | --- | --- | --- | --- | --- | --- | --- | --- | --- |
| RASSVYTRSTG [CCR5_Y339] | 0.809 | 0.489 | 0.472 | 0.651 | 0.591 | 0.552 | 0.48 | 0.47 | 0.552 | 1.5 | 0.608 | 0.741 | 0.655 | 1.21 | 0.721 | 0.875 |
| KNEIFYQCPDQ [FBXO3_Y223_V221I] | 0.774 | 0.676 | 0.746 | 2.23 | 0.688 | 1.07 | 0.928 | 1.02 | 4.5 | 1.36 | 0.748 | 0.998 | 1.07 | 2.55 | 6.62 | 0.744 |
| KQQEIYQEVTQ [CD209_Y239_L242V] | 0.929 | 0.785 | 0.513 | 1.26 | 7.2 | 4.5 | 2.56 | 1.96 | 7.32 | 0.942 | 5.17 | 5.41 | 0.765 | 4.06 | 1.94 | 5.15 |
| ARGMEYLASKN [FGFR1_Y613_K618N] | 1.03 | 0.557 | 0.524 | 0.452 | 0.285 | 0.32 | 0.407 | 0.447 | 0.271 | 0.511 | 0.327 | 0.337 | 0.463 | 0.355 | 0.385 | 0.394 |
| LEQRPYRRESE [KCNJ12_Y427] | 0.621 | 0.945 | 0.267 | 0.746 | 0.591 | 0.643 | 0.333 | 0.666 | 0.367 | 1.01 | 0.91 | 0.52 | 0.461 | 0.618 | 0.519 | 0.385 |
| FNNFGYGNDGF [HNRNPH3_Y161_YF] | 0.936 | 0.704 | 0.554 | 0.828 | 0.403 | 0.518 | 0.546 | 0.557 | 0.499 | 0.939 | 0.505 | 0.447 | 0.937 | 0.491 | 0.606 | 0.507 |
| FQGGTYSKAST [FGG_Y380_YF] | 0.787 | 1.14 | 0.657 | 0.448 | 0.377 | 0.452 | 0.495 | 0.413 | 0.325 | 0.544 | 0.372 | 0.308 | 0.478 | 0.46 | 0.446 | 0.41 |
| LILENYGADID [DNAH5_Y596] | 0.939 | 0.685 | 0.669 | 1.84 | 1.11 | 0.856 | 0.935 | 1.32 | 0.809 | 1.4 | 0.883 | 0.889 | 1.25 | 0.574 | 0.841 | 0.56 |
| QGGRHYMMIVD [GAA_Y438_R437H] | 1.09 | 1.57 | 8.36 | 1.01 | 0.639 | 0.573 | 1.01 | 0.981 | 0.605 | 0.778 | 0.65 | 0.779 | 0.863 | 0.969 | 0.475 | 0.444 |
| FFTEEYVRDHP [DOCK2_Y1555] | 0.944 | 0.916 | 0.553 | 0.989 | 0.486 | 0.461 | 0.481 | 0.766 | 0.452 | 0.915 | 0.44 | 0.485 | 1.19 | 0.381 | 0.657 | 0.457 |
| PLEGKYEWQEV [CDKN1B_Y74] | 0.675 | 0.516 | 3.88 | 1.29 | 0.57 | 0.572 | 0.619 | 0.743 | 0.613 | 1.49 | 0.379 | 0.483 | 1.11 | 0.452 | 0.816 | 0.465 |
| NEKNIYGVPLM [BMPR2_Y247_R248G] | 0.808 | 0.785 | 0.478 | 0.616 | 0.431 | 1.7 | 0.511 | 0.624 | 3.26 | 0.717 | 4.93 | 6.04 | 0.627 | 2.83 | 19.6 | 3.45 |

Now from value to sequence, other results behind:

| SH2 binding enrichment (Grb2 SH2) | SH2 binding enrichment (SHP2-C SH2) | SH2 binding enrichment (c-Src SH2) | Sequence | phosphorylation enrichment (AncSZ) | phosphorylation enrichment (EPHB1) | phosphorylation enrichment (EPHB2) | phosphorylation enrichment (FGFR1) | phosphorylation enrichment (FGFR3) | phosphorylation enrichment (Fer (mouse)) | phosphorylation enrichment (Fes) | phosphorylation enrichment (Fyn) | phosphorylation enrichment (Hck) | phosphorylation enrichment (Jak2) | phosphorylation enrichment (MERTK) | phosphorylation enrichment (c-Abl (mouse)) | phosphorylation enrichment (c-Src) |
| --- | --- | --- | --- | --- | --- | --- | --- | --- | --- | --- | --- | --- | --- | --- | --- | --- |
| 0.581 | 0.506 | 0.347 | QNTGHYSSDNT [TMEFF2_Y361] | 0.461 | 0.446 | 0.442 | 0.474 | 0.691 | 0.43 | 0.532 | 0.545 | 0.544 | 0.443 | 0.544 | 0.49 | 0.704 |
| 1.2 | 0.638 | 1.26 | RSYSPYDYQPC [TNS1_Y796] | 1.52 | 1.81 | 2.31 | 1.27 | 1.06 | 0.894 | 0.912 | 3.66 | 1.29 | 0.789 | 3.28 | 0.668 | 3.15 |
| 0.657 | 0.453 | 0.487 | SLTCTYSPALN [TP53_Y126_V122L] | 1.56 | 0.924 | 0.882 | 0.66 | 1.21 | 0.696 | 1.81 | 0.797 | 0.818 | 1.57 | 0.522 | 1.65 | 0.804 |
| 1.08 | 1.1 | 0.464 | AGAIIYTSRFQ [PFAS_Y538] | 0.748 | 0.486 | 0.674 | 0.398 | 0.504 | 0.506 | 0.839 | 0.58 | 0.76 | 0.686 | 0.568 | 0.72 | 0.929 |
| 0.867 | 0.693 | 1.72 | QITQVYGFYDE [PPP2CA_Y127] | 1.24 | 0.716 | 1.12 | 0.615 | 1.27 | 1.3 | 1.21 | 9.45 | 3.7 | 1.06 | 1.58 | 1.01 | 6.85 |

From the supplement of paper PMC10065799, “High-throughput profiling of sequence recognition by tyrosine kinases and SH2 domains using bacterial peptide display” (eLife, 2023)
